Assay results as given in US20200010567A1 (NEURIMMUNE, published 2020).

Experiments:
(PR)15: H-C(PR)15-OH = target: T1, (PR)15: H-C(PR)15-OH; test: indirect ELISA, coated peptide
T1 construct: synthetic, not coupled to BSA; also called poly-PR DPR protein peptide
T1 peptide: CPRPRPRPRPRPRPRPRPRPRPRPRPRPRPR
Description: (§1) In brief, dipeptide repeat proteins were synthesized and purified by Schafer-N(Copenhagen, Denmark): (GA)₁₅: H-CHHHHHH(GA)₁₅-OH; (GP)₁₅: H-C(GP)₁₅-OH; (GR)₁₅: H-C(GR)₁₅-OH; (PA)₁₅: H-C(PA)₁₅-OH; (PR)₁₅: H—C(PR)₁₅-OH. 96-well microplates (Corning Incorporated, Corning, USA) were coated with dipeptide repeat protein peptides at a concentration of either 5 μg/ml or 20 μg/ml in coating buffer (15 mM Na₂CO₃, 35 mM NaHCO₃, pH 9.42). Non-specific binding sites were blocked for 1 h at room temperature with PBS/0.1% Tween®-20 containing 2% BSA (Sigma-Aldrich, Buchs, Switzerland). Primary antibodies were diluted to the indicated concentrations and incubated for 1 h at room temperature, followed by incubation with a donkey anti-human IgG Fcγ-specific antibody conjugated with HRP (Jackson ImmunoResearch Laboratories, Inc., West Grove, USA). Binding was determined by measurement of HRP activity in a standard colorimetric assay. EC₅₀ values were estimated by non-linear regression using GraphPad Prism software (San Diego, USA). The binding specificity and EC₅₀ of human-derived antibodies for C9orf72 dipeptide repeat protein peptides (GA)₁₅, (GP)₁₅, (GR)₁₅, (PA)₁₅ and (PR)₁₅ were determined by indirect ELISA.

(GP)15: H-C(GP)15-OH = target: T2, (GP)15: H-C(GP)15-OH; test: indirect ELISA, coated peptide
T2 construct: synthetic, not coupled to BSA; also called poly-GP DPR protein peptide
T2 peptide: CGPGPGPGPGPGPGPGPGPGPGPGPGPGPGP
Description: as §1

(PA)15: H-C(PA)15-OH = target: T3, (PA)15: H-C(PA)15-OH; test: indirect ELISA, coated peptide
T3 construct: synthetic, not coupled to BSA; also called poly-PA DPR protein peptide
T3 peptide: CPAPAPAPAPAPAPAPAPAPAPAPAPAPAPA
Description: as §1

(GR)15: H-C(GR)15-OH = target: T4, (GR)15: H-C(GR)15-OH; test: indirect ELISA, coated peptide
T4 construct: synthetic, not coupled to BSA; also called poly-GR DPR protein peptide
T4 peptide: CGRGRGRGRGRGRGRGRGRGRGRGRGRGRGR
Description: as §1

GA20: H-(GA)20HHHHHH-NH2 = target: T5, GA20: H-(GA)20HHHHHH-NH2 (C-terminal amide); test: indirect ELISA, coated His-tagged peptide
T5 peptide: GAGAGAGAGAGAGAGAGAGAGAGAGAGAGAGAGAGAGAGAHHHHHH
Text: In brief, dipeptide repeat proteins were synthesized and purified by Schafer-N (Copenhagen, Denmark): GA₂₀: H-(GA)₂₀HHHHHH-NH₂; GA₁₀: H-(GA)₁₀HHHHHH-NH₂; GA₆: H-(GA)₆HHHHHH-NH₂; GA₅: H-(GA)₅HHHHHH-NH₂; GA₄: H-(GA)₄HHHHHH-NH₂; GA₃: H-(GA)₃HHHHHH-NH₂; GA₂: H-(GA)₂HHHHHH-NH₂; GP₂₀: H-(GP)₂₀HHHHHH-NH₂; GP₁₀: H-(GP)₁₀HHHHHH-NH₂; GP₆: H-(GP)₆HHHHHH-NH₂; GP₅: H-(GP)₅HHHHHH-NH₂; GP₄: H-(GP)₄HHHHHH-NH₂; GP₃: H-(GP)₃HHHHHH-NH₂; GP₂: H-(GP)₂HHHHHH-NH₂. GR₂₀: H-(GR)₂₀HHHHHH-NH₂; GR₁₀: H-(GR)₁₀HHHHHH-NH₂; GR₆: H-(GR)₆HHHHHH-NH₂; GR₅: H-(GR)₅HHHHHH-NH₂; GR₄: H-(GR)₄HHHHHH-NH₂; GR₃: H-(GR)₃HHHHHH-NH₂; GR₂: H-(GR)₂HHHHHH-NH₂; PA₂₀: H-(PA)₂₀HHHHHH-NH₂; PA₁₀: H-(PA)₁₀HHHHHH-NH₂; PA₆: H-(PA)₆HHHHHH-NH₂; PA₅: H-(PA)₅HHHHHH-NH₂; PA₄: H-(PA)₄HHHHHH-NH₂; PA₃: H-(PA)₃HHHHHH-NH₂; PA₂: H-(PA)₂HHHHHH-NH₂; PR₂₀: H-(PR)₂₀HHHHHH-NH₂; PR₁₀: H-(PR)₁₀HHHHHH-NH₂; PR₆: H-(PR)₆HHHHHH-NH₂; PR₅: H-(PR)₅HHHHHH-NH₂; PR₄: H-(PR)₄HHHHHH-NH₂; PR₃: H-(PR)₃HHHHHH-NH₂; PR₂: H-(PR)₂HHHHHH-NH₂. 96-well microplates (Corning Incorporated, Corning, USA) were coated with dipeptide repeat protein peptides at a concentration of 50 μg/ml in coating buffer (15 mM Na₂CO₃, 35 mM NaHCO₃, pH 9.42). Non-specific binding sites were blocked for 1 h at room temperature with PBS/0.1% Tween®-20 containing 2% BSA (Sigma-Aldrich, Buchs, Switzerland). Primary antibodies were diluted to the indicated concentrations and incubated 1 h at room temperature, followed by incubation with a donkey anti-human IgG Fcγ-specific antibody conjugated with HRP (Jackson ImmunoResearch Laboratories, Inc., West Grove, USA). Binding was determined by measurement of HRP activity in a standard colorimetric assay. EC₅₀ values were estimated by non-linear regression using GraphPad Prism software (San Diego, USA).

[1] = target: T6, transactive response DNA binding protein 43 (UniProt Q13148 1-414, limits assumed); test: indirect ELISA, coated protein
T6 construct: also called TDP-43
Description: (§2) 96-well microplates (Corning) were coated with different target proteins at a concentration of 1-10 μg/ml in coating buffer (15 mM Na₂CO₃, 35 mM NaHCO₃, pH 9.42). Non-specific binding sites were blocked for 1 h at RT with PBS/0.1% Tween®-20 containing 2% BSA (Sigma-Aldrich, Buchs, Switzerland). […] Binding was determined using donkey anti-human IgG Fcγ-specific antibody conjugated with HRP (Jackson ImmunoResearch Laboratories, Inc., West Grove, USA) followed by measurement of HRP activity in a standard colorimetric assay. Signals for target protein were calculated in fold increase above median.

[2] = target: T7, full-length amyloid precursor protein (UniProt P05067 18-770, limits assumed); test: indirect ELISA, coated protein
T7 construct: also called flAPP
Description: as §2

Tau = Tau (UniProt P10636-8 1-441, limits assumed); test: indirect ELISA, coated protein
Description: as §2

transthyrethin = transthyrethin (UniProt P02766 21-147); test: indirect ELISA, coated protein
Description: as §2

T6 sequence (Q13148 whole entry): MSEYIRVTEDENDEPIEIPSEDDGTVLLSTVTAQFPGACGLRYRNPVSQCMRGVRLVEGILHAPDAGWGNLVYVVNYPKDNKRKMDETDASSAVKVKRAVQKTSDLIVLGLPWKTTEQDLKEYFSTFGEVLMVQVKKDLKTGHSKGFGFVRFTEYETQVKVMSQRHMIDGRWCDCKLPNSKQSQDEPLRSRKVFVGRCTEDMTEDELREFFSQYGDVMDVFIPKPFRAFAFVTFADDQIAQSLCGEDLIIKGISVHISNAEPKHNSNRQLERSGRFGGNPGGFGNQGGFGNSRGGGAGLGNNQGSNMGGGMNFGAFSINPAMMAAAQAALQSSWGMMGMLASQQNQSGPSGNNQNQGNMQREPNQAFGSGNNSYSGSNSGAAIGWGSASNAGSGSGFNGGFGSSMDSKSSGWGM
T7 sequence (P05067 18-770 limits assumed): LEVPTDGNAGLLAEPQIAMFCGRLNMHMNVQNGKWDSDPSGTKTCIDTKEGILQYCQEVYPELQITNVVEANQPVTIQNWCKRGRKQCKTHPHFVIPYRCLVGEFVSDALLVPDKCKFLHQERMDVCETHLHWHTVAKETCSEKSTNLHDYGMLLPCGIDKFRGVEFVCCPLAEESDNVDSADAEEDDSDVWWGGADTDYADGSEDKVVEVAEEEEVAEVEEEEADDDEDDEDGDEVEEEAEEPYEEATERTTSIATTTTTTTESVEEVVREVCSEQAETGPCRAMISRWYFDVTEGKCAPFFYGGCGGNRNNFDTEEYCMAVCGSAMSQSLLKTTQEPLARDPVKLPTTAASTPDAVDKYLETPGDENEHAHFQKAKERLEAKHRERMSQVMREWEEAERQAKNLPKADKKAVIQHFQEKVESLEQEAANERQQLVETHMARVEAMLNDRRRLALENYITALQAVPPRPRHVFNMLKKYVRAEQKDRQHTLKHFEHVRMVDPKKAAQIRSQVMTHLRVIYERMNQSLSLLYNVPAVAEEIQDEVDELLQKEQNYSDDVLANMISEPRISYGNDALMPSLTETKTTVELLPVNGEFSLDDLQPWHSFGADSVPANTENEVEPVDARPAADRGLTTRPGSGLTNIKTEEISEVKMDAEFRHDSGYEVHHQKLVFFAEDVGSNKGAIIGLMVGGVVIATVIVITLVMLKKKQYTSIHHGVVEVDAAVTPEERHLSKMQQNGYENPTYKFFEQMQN
Tau, sequence (P10636 other isoform, or with tags, fused parts or gaps limits assumed): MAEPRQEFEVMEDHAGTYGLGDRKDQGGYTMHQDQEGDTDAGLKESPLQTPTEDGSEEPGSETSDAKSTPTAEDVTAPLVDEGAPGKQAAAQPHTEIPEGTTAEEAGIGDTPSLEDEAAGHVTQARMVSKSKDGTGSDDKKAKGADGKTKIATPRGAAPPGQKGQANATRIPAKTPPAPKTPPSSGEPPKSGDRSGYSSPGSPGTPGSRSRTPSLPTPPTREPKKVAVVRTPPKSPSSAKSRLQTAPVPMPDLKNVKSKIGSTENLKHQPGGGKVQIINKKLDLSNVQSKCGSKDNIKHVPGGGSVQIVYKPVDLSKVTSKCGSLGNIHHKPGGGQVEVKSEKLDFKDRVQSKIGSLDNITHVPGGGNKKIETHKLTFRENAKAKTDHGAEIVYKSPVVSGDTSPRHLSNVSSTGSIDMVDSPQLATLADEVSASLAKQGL

B1: NI-308.18F7 (antibody, V domains shown)
VH: QVQLQESGPGLVKPSETLSVTCTVSGGSINDYYWNWIRQPAGKGLEWIGRIYASGTINYNPSLQSRVTMSIDTSKNQFSLDLISVSAADTAVYYCARWGQVVGDYYYGMDVWGQGTTVTVSS
VL: EIVLTQSPLSLSVTPGEPASISCKSSQSLQHTNGYNYLDWYLLKPGQSPQLLIFLTSNRASGVPDRFSGSGSGTNFTLKISRVEAEDVGVYYCMEGIQLWTFGQGTKLEIK
notes: Recombinant complete human IgG1, kappa
binding result ((PR)15: H-C(PR)15-OH): no binding | binding result ((GP)15: H-C(GP)15-OH): no binding | binding result ((PA)15: H-C(PA)15-OH): no binding | binding result ((GR)15: H-C(GR)15-OH): no binding | EC50 (GA20: H-(GA)20HHHHHH-NH2): 830 pM | binding result [1]: no binding (tested: 20 nM) | binding result [2]: no binding (tested: 20 nM) | binding result (Tau): no binding (tested: 20 nM) | binding result (transthyrethin): no binding (tested: 20 nM)
